In PMC5370111, “Biophysical characterization of the b-HLH-LZ of ΔMax, an alternatively spliced isoform of Max found in tumor cells: Towards the validation of a tumor suppressor role for the Max homodimers”:

Tests used:
[1] = test system: Max* in heterodimer;ΔMax* in heterodimer V99G;R100E;A101S;L102E;E103S (;), P61244+P61244-3; test: fluorescence anisotropy; conditions: 37 C, 1:1 mixture, apparent 1/KBinding, internal fluorescein-dT (iFluorT) at position 4, FA: 15 nM dsDNA, 50 mM Tris, 50 mM KCl, pH 7.5, 37 C, EMSA: 250 nM DNA, 20 mM Tris-HCl, 75 mM KCl, 2.5 mM TCEP, 25 ug/mL BSA, 5% glycerol, pH 8.0, room temp …
Sequence of Max* in heterodimer;ΔMax* in heterodimer V99G;R100E;A101S;L102E;E103S (;), P61244+P61244-3 (P61244 whole entry V99G/R100E/A101S/L102E/E103S, looked up, canonical isoform, one chain of several): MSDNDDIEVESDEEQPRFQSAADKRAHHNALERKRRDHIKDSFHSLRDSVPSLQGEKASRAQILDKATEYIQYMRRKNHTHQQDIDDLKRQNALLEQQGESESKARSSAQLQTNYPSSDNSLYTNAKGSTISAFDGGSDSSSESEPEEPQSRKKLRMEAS

[2] = test system: ΔMax* (b-HLH-LZ of ΔMax splice isoform) V99G;R100E;A101S;L102E;E103S, P61244-3; test: fluorescence anisotropy; conditions: 37 C; apparent 1/KBinding of dimer; 1/KDimer 220 ± 20 nM; internal fluorescein-dT (iFluorT) at position 4; FA: 15 nM dsDNA, 50 mM Tris, 50 mM KCl, pH 7.5, 37 C; EMSA: 250 nM DNA, 20 mM Tris-HCl, 75 mM KCl, 2.5 mM TCEP, 25 ug/mL BSA, 5% glycerol, pH 8.0, room temp …
Sequence of ΔMax* (b-HLH-LZ of ΔMax splice isoform) V99G;R100E;A101S;L102E;E103S, P61244-3 (P61244 whole entry V99G/R100E/A101S/L102E/E103S, looked up, canonical isoform): as the sequence (P61244 whole entry V99G/R100E/A101S/L102E/E103S, looked up, canonical isoform, one chain of several) above

[3] = test system: ΔMax* in heterodimer;c-Myc* in heterodimer V99G;R100E;A101S;L102E;E103S (;), P61244-3+P01106; test: fluorescence anisotropy; conditions: 37 C, 1:1 mixture, apparent 1/KBinding, internal fluorescein-dT (iFluorT) at position 4, FA: 15 nM dsDNA, 50 mM Tris, 50 mM KCl, pH 7.5, 37 C, EMSA: 250 nM DNA, 20 mM Tris-HCl, 75 mM KCl, 2.5 mM TCEP, 25 ug/mL BSA, 5% glycerol, pH 8.0, room temp …
Sequence of ΔMax* in heterodimer;c-Myc* in heterodimer V99G;R100E;A101S;L102E;E103S (;), P61244-3+P01106 (P01106 whole entry, looked up, chain 1 of 2): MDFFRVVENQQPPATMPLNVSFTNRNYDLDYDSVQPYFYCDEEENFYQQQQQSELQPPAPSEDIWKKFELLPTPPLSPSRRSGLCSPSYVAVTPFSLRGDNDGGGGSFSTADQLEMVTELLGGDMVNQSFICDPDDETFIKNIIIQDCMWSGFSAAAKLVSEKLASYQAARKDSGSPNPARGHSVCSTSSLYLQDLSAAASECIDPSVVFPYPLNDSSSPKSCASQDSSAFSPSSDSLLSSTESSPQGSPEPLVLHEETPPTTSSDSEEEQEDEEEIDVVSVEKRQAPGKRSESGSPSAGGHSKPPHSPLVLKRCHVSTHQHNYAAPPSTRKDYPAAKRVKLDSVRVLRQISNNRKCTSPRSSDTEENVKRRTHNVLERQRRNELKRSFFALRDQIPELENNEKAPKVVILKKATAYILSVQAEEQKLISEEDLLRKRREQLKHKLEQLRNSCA
Sequence of ΔMax* in heterodimer;c-Myc* in heterodimer V99G;R100E;A101S;L102E;E103S (;), P61244-3+P01106 (P61244 whole entry, looked up, stated change not applied, chain 2 of 2): as the sequence (P61244 whole entry V99G/R100E/A101S/L102E/E103S, looked up, canonical isoform, one chain of several) above, with G99V, E100R, S101A, E102L, S103E counted along it

[4] = molecular target: T1, c-Myc* (b-HLH-LZ of c-Myc) (UniProt P01106 368-451); test: fluorescence anisotropy; 37 C; apparent 1/KBinding of dimer; 1/KDimer 8.5 ± 3 nM; FA: 15 nM dsDNA, 50 mM Tris, 50 mM KCl, pH 7.5, 37 C; EMSA: 250 nM DNA, 20 mM Tris-HCl, 75 mM KCl, 2.5 mM TCEP, 25 ug/mL BSA, 5% glycerol, pH 8.0, room temp; CD: 25 mM KH2PO4, 25 mM Na2HPO4, 50 mM KCl, 1 mM TCEP, pH 6.8; conditions: protein: recombinant; chain copies: 2; label: fluorescein; blunt, self-complementary palindrome
T1 sequence (P01106 368-451): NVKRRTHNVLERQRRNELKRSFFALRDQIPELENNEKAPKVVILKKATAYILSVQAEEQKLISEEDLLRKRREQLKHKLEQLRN

[5] = molecular target: T2, Max* (b-HLH-LZ of WT Max) (UniProt P61244 22-103); test: fluorescence anisotropy; 37 C; apparent 1/KBinding of dimer; 1/KDimer 55 ± 7 nM; FA: 15 nM dsDNA, 50 mM Tris, 50 mM KCl, pH 7.5, 37 C; EMSA: 250 nM DNA, 20 mM Tris-HCl, 75 mM KCl, 2.5 mM TCEP, 25 ug/mL BSA, 5% glycerol, pH 8.0, room temp; CD: 25 mM KH2PO4, 25 mM Na2HPO4, 50 mM KCl, 1 mM TCEP, pH 6.8; conditions: protein: recombinant; tags: C-terminal GSGC stated for the deltaMax* construct only; not restated for Max*; chain copies: 2; label: fluorescein; blunt, self-complementary palindrome
T2 sequence (P61244 22-103): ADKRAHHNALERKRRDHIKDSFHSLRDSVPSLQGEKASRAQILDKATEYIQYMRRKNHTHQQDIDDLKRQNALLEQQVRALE

[6] = molecular target: Max* in heterodimer;c-Myc* in heterodimer (;, UniProt P61244;P01106 22-103;368-451, |); test: EMSA; room temperature; Max*/Max* complex also seen at 2:1 excess of c-Myc*; FA: 15 nM dsDNA, 50 mM Tris, 50 mM KCl, pH 7.5, 37 C; EMSA: 250 nM DNA, 20 mM Tris-HCl, 75 mM KCl, 2.5 mM TCEP, 25 ug/mL BSA, 5% glycerol, pH 8.0, room temp; CD: 25 mM KH2PO4, 25 mM Na2HPO4, 50 mM KCl, 1 mM TCEP, pH 6.8; conditions: protein: recombinant;recombinant; tags: ;; copies: 1;1; label: fluorescein; blunt, self-complementary palindrome
Sequence of Max* in heterodimer;c-Myc* in heterodimer (P61244 22-103, chain 1 of 2): as the sequence (P61244 22-103) above
Sequence of Max* in heterodimer;c-Myc* in heterodimer (P01106 368-451, chain 2 of 2): as the sequence (P01106 368-451) above

[7] = molecular target: T2, Max* (b-HLH-LZ of WT Max); test: fluorescence anisotropy; 37 C; apparent 1/KBinding of dimer; 1/KDimer 8.6 ± 1.2 nM; FA: 15 nM dsDNA, 50 mM Tris, 50 mM KCl, pH 7.5, 37 C; EMSA: 250 nM DNA, 20 mM Tris-HCl, 75 mM KCl, 2.5 mM TCEP, 25 ug/mL BSA, 5% glycerol, pH 8.0, room temp; CD: 25 mM KH2PO4, 25 mM Na2HPO4, 50 mM KCl, 1 mM TCEP, pH 6.8; conditions: protein: recombinant; tags: C-terminal GSGC stated for the deltaMax* construct only; not restated for Max*; chain copies: 2; label: fluorescein; blunt, self-complementary palindrome
[8] = molecular target: T1, c-Myc* (b-HLH-LZ of c-Myc); test: fluorescence anisotropy; 37 C; apparent 1/KBinding of dimer; 1/KDimer 0.48 ± 0.5 nM; FA: 15 nM dsDNA, 50 mM Tris, 50 mM KCl, pH 7.5, 37 C; EMSA: 250 nM DNA, 20 mM Tris-HCl, 75 mM KCl, 2.5 mM TCEP, 25 ug/mL BSA, 5% glycerol, pH 8.0, room temp; CD: 25 mM KH2PO4, 25 mM Na2HPO4, 50 mM KCl, 1 mM TCEP, pH 6.8; conditions: protein: recombinant; chain copies: 2; label: fluorescein; blunt, self-complementary palindrome
[9] = molecular target: T1, c-Myc* (b-HLH-LZ of c-Myc); test: CD thermal denaturation; stable complex; FA: 15 nM dsDNA, 50 mM Tris, 50 mM KCl, pH 7.5, 37 C; EMSA: 250 nM DNA, 20 mM Tris-HCl, 75 mM KCl, 2.5 mM TCEP, 25 ug/mL BSA, 5% glycerol, pH 8.0, room temp; CD: 25 mM KH2PO4, 25 mM Na2HPO4, 50 mM KCl, 1 mM TCEP, pH 6.8; conditions: protein: recombinant; chain copies: 2; blunt, self-complementary palindrome
[10] = molecular target: T2, Max* (b-HLH-LZ of WT Max); test: CD thermal denaturation; complex T° 56.1 C; FA: 15 nM dsDNA, 50 mM Tris, 50 mM KCl, pH 7.5, 37 C; EMSA: 250 nM DNA, 20 mM Tris-HCl, 75 mM KCl, 2.5 mM TCEP, 25 ug/mL BSA, 5% glycerol, pH 8.0, room temp; CD: 25 mM KH2PO4, 25 mM Na2HPO4, 50 mM KCl, 1 mM TCEP, pH 6.8; conditions: protein: recombinant; tags: C-terminal GSGC stated for the deltaMax* construct only; not restated for Max*; chain copies: 2; blunt, self-complementary palindrome
[11] = molecular target: T2, Max* (b-HLH-LZ of WT Max); test: CD thermal denaturation; complex T° 43.7 C; less stable than E-box; FA: 15 nM dsDNA, 50 mM Tris, 50 mM KCl, pH 7.5, 37 C; EMSA: 250 nM DNA, 20 mM Tris-HCl, 75 mM KCl, 2.5 mM TCEP, 25 ug/mL BSA, 5% glycerol, pH 8.0, room temp; CD: 25 mM KH2PO4, 25 mM Na2HPO4, 50 mM KCl, 1 mM TCEP, pH 6.8; conditions: protein: recombinant; tags: C-terminal GSGC stated for the deltaMax* construct only; not restated for Max*; chain copies: 2; blunt, self-complementary palindrome

Q: With “GAGTAGCACGTGCTACTC (double strand) [E-box, fluorescein-labeled]” as the molecule, how does the Kd ([1]; 1/KDimer 120 ± 10 nM) read?
A: The Kd was 4 nM.

Q: What about the Kd [2] of the same molecule?
A: The Kd was 80 nM.

Q: What about the Kd ([3]; 1/KDimer 17 ± 2 nM) of the same molecule?
A: Its Kd is 10 nM.

Q: How did the Kd ([1]; 1/KDimer 460 ± 34 nM) turn out when “GAGTAGGGATCCCTACTC (double strand) [Non-specific DNA, fluorescein-labeled]” was run?
A: Its Kd is 40 nM.

Q: What about the Kd ([3]; 1/KDimer 38 ± 5 nM) of the same molecule?
A: Its Kd is 11 nM.

B1: Non-specific DNA, fluorescein-labeled (dsDNA)
DNA 1: GAGTAGGGATCCCTACTC
DNA 2: GAGTAGGGATCCCTACTC
modifications: internal fluorescein-dT (iFluorT) at position 4
Q: How did the Kd [4] turn out when B1 was run?
A: The Kd was 280 nM.

Q: And the Kd [5]?
A: The Kd was 23 nM.

B2: E-box, fluorescein-labeled (dsDNA)
DNA 1: GAGTAGCACGTGCTACTC
DNA 2: GAGTAGCACGTGCTACTC
modifications: internal fluorescein-dT (iFluorT) at position 4
Q: Does B2 bind [6]?
A: Result: binds

Q: What about the Kd [7] of the same molecule?
A: Its Kd is 4.8 nM.

Q: And the Kd [8]?
A: Its Kd is 70 nM.

B3: E-box, unlabeled (CD) (dsDNA)
DNA 1: GAGTAGCACGTGCTACTC
DNA 2: GAGTAGCACGTGCTACTC
Q: What does the source list for B3?
A: binding result [9]: binds; binding result [10]: binds

B4: Non-specific DNA, unlabeled (CD) (dsDNA)
DNA 1: GAGTAGGGATCCCTACTC
DNA 2: GAGTAGGGATCCCTACTC
Q: Does B4 bind [11]?
A: Result: binds
